# Assay results taken from PMC11161652, “ASXLs binding to the PHD2/3 fingers of MLL4 provides a mechanism for the recruitment of BAP1 to active enhancers” (Nature Communications, 2024).
# Numbering of substitutions follows the chain as printed.
# B1: ASXL2 peptide (residues 650-670 of ASXL2) (peptide, UniProt Q76L83 650-670, looked up)
# peptide: NRTGARTLADIKAKAQLVKAQ
# notes: also called ASXL2 (aa 650-670); MBH of ASXL2; source: synthetic peptide (SynPeptide)
# Tests used:
# MLL3_(PHD2/3) D372N = molecular target: T1, MLL3_(PHD2/3) D372N (human, UniProt Q8NEZ4 342-439, D372N)
# T1 sequence: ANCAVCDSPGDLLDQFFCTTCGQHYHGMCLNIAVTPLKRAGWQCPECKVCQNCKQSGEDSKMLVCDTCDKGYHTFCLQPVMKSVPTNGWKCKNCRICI
# MLL3_(PHD2/3) D372K = molecular target: T2, MLL3_(PHD2/3) D372K (human, UniProt Q8NEZ4 342-439, D372K)
# T2 sequence: T1 sequence with N31K
# MLL3_(PHD2/3) E387Q = molecular target: T3, MLL3_(PHD2/3) E387Q (human, UniProt Q8NEZ4 342-439, E387Q)
# T3 sequence: T1 sequence with N31D, E46Q
# MLL3_(PHD2/3) D400K = molecular target: T4, MLL3_(PHD2/3) D400K (human, UniProt Q8NEZ4 342-439, D400K)
# T4 sequence: T1 sequence with N31D, D59K
# MLL4_(PHD2/3) E272K = molecular target: T5, MLL4_(PHD2/3) E272K (human, UniProt O14686 227-324, E272K); test: other fluorescence titration; tryptophan fluorescence, 25 °C; 1.0 µM MLL4 PHD2/3 or MLL3 PHD2/3 with increasing peptide; excitation 295 nm; 20 mM Tris pH 7.2, 150 mM NaCl, 1 mM TCEP, 0.02% Tween20; average of three measurements; details: both partners purified
# T5 construct: human MLL4 (KMT2D), aa 227-324; E272K is said to be found in cancers (Cosmic); source: E. coli BL21-CodonPlus, purified as WT
# T5 sequence (looked up): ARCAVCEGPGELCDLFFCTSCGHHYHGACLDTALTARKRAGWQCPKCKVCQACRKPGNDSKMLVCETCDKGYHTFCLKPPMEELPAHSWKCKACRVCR
binder,measurement,setting,value
B1,Kd,MLL3_(PHD2/3) D372N,9 µM
same,Kd,MLL3_(PHD2/3) D372K,55 µM
same,Kd,MLL3_(PHD2/3) E387Q,6 µM
same,Kd,MLL3_(PHD2/3) D400K,540 µM
same,Kd,MLL4_(PHD2/3) E272K,28 µM
